Results taken from patent US20260109758A1 (BIOSION, published 2026).
Like-named read-outs stand apart in the source and are kept apart here.

Experiments:
[1] = molecular target: T1, biotin-labeled human TSLP-Fc (human, biotin-labeled); experiment: cell-based blocking FACS: antibody pre-mixed with biotin human TSLP-Fc; blocked binding to cell-surface TSLPR/IL7Ra on HEK293T-TSLPR/IL7R/STAT5-Luc 5C5 cells
T1 construct: also called TSLP-Fc protein; TSLP-Fc-biotin
Protocol: (§1) The cells were prepared following the instruction of lipofectamine 3000 transfection reagent (Thermo Fisher), by transfecting HEK293T cells (ATCC® CRL-11268) with pCMV-T-P plasmids inserted with TSLPR coding sequence between EcoRI and Xba1 sites and pCMV3-SP plasmids inserted with IL7Ra coding sequence between HindIII and Xba1 sites as well as pGL4.52 [luc2P/STAT5RE/Hygro](Promega).
(§2) The cells were harvested from cell culture flasks, washed twice and re-suspended in phosphate buffered saline (PBS) containing 2% v/v Fetal Bovine Serum (FACS buffer). […] Cells were washed twice with FACS buffer, and then added and incubated with 100 μL/well R-Phycoerythrin Streptavidin (1:500 dilution in FACS buffer, Jackson Immunoresearch, Cat #016-110-084) for 40 minutes at 4° C. in dark. Cells were washed twice and re-suspended in FACS buffer. Fluorescence was measured using a Becton Dickinson FACS Canto II-HTS equipment. Data was analyzed using Graphpad Prism and IC₅₀ values were reported.

[2] = molecular target: T2, human IL4Rα expressed on 293F-IL4Rα cell surface (human, UniProt P24394 26-825); experiment: cell-based blocking FACS on 293F-IL4Rα cells; blocked ligand biotin human IL4
T2 construct: whole, on cells; also called human IL4Rα-expressing cells; cell surface IL4R
Protocol: (§3) Then, 1×10⁵ cells per well were incubated in 96 well-plates in 100 μL of serially diluted bispecific antibodies, the positive controls or negative control (starting at 100 nM with a 5-fold serial dilution) in FACS buffer for 40 minutes on ice. […] The plates were washed twice with FACS buffer, and then added and incubated for 40 minutes at 4° C. in dark with 100 μL/well R-Phycoerythrin Streptavidin (1:500 dilution in FACS buffer, Jackson Immunoresearch, Cat #016-110-084). Cells were washed twice and resuspended in FACS buffer. Fluorescence was measured using a Becton Dickinson FACS Canto II-HTS equipment. Data was analyzed using Graphpad Prism and IC₅₀ values were reported.

[3] = molecular target: T2, human IL4Rα expressed on 293F-IL4Rα …; experiment: flow cytometry on 293F-IL4Rα cells, PE anti-human IgG Fc
Protocol: (§4) Cells were washed twice with FACS buffer, and added with 100 μL/well R-Phycoerythrin AffiniPure Goat Anti-Human IgG, Fey fragment specific (1:1000 dilution in FACS buffer, Jackson Immunoresearch, Cat #109-115-098). Following an incubation of 40 minutes at 4° C. in dark, cells were washed three times and resuspended in FACS buffer. Fluorescence was measured using a Becton Dickinson FACS Canto II-HTS equipment. Data was analyzed using Graphpad Prism and EC₅₀ values were reported.

[4] = molecular target: T3, recombinant human IL4Rα-his (human, UniProt P24394 26-231, limits assumed, biotin-labeled in the capture ELISA); experiment: capture ELISA: antibody captured on anti-human IgG Fc F(ab')2, biotin human IL4Rα-his, SA-HRP
T3 construct: In-house made; not shown: His tag at the C-terminus
Protocol: (§5) Briefly, 96-well plates were coated with 2 μg/mL AffiniPure F(ab′)₂ Fragment Goat Anti-Human IgG, Fey fragment specific (Jackson Immuno Research, Cat #109-006-008) in PBS, 100 μL/well, overnight at 4° C. Plates were washed once with wash buffer (PBS+0.05% w/v Tween-20, PBST) and then blocked with 200 μL/well blocking buffer (5% w/v non-fatty milk in PBST) for 2 hours at 37° C. […] After a final wash, plates were incubated with 100 μL/well ELISA substrate TMB (Innoreagents, Cat #TMB-S-002). The reaction was stopped in 10 minutes at 25° C. with 50 μL/well 1M H₂SO₄, and the absorbance was read on a microplate reader using dual wavelength mode with 450 nm for TMB and 630 nm as the reference wavelength. Data was analyzed using Graphpad Prism and EC₅₀ values were reported.

[5] = molecular target: T3, recombinant human IL4Rα-his; experiment: SPR Biacore T200; antibody captured on anti-human IgG CM5 chip, IL4Rα-his as analyte; 1:1 Langmuir fit
Protocol: The goat anti-human IgG (GE healthcare, Cat #BR100839, Human Antibody Capture Kit) was covalently linked to a CM5 chip (carboxy methyl dextran coated chip) via primary amines, using a standard amine coupling kit provided by Biacore (GE healthcare, Pittsburgh, PA, USA). Un-reacted moieties on the biosensor surface were blocked with ethanolamine. Then, purified bispecific antibodies of the disclosure at the concentration of 66.67 nM and the controls at 10 μg/mL, were flowed onto the chip at a flow rate of 10 μL/min. Then, serially diluted recombinant human IL4Rα-his (in house made, IL4Rα of SEQ ID NO: 33 with His tag at C-terminus) in HBS EP buffer (provided by Biacore) was flowed onto the chip at a flow rate of 30 μL/min. The association and dissociation curves were fit to a 1:1 Langmuir binding model using BIAcore evaluation software.

[6] = molecular target: T3, recombinant human IL4Rα-his; experiment: capture ELISA: antibody captured on anti-human IgG Fc F(ab')2, biotin human IL4Rα-his, SA-HRP; remark: listed apart in the source
Protocol: as §5

[7] = molecular target: T2, human IL4Rα expressed on 293F-IL4Rα …; experiment: cell-based blocking FACS on 293F-IL4Rα cells; blocked ligand biotin human IL4; remark: listed apart in the source
Protocol: as §3

[8] = molecular target: T2, human IL4Rα expressed on 293F-IL4Rα …; experiment: flow cytometry on 293F-IL4Rα cells, PE anti-human IgG Fc; remark: listed apart in the source
Protocol: as §4

[9] = molecular target: T4, recombinant human TSLP-his (human, UniProt Q969D9 29-159, biotin-labeled in the ELISAs); experiment: SPR Biacore; TSLP-his amine-coupled to CM5 chip, antibody as analyte; 1:1 Langmuir fit
T4 construct: In-house made; not shown: His tag at the C-terminus
Protocol: Un-reacted moieties on the biosensor surface were blocked with ethanolamine. Then, serially diluted purified bispecific antibodies and the controls (2-fold serial dilution in HBS-EP⁺ buffer starting at 100 nM) were respectively flowed onto the chip at a flow rate of 30 μL/min. The antigen-antibody association kinetics was followed for 4 minutes and the dissociation kinetics was followed for 13 minutes.

[10] = molecular target: T1, biotin-labeled human TSLP-Fc; experiment: cell-based blocking FACS: antibody pre-mixed with biotin human TSLP-Fc; blocked binding to cell-surface TSLPR/IL7Ra on HEK293T-TSLPR/IL7R/STAT5-Luc 5C5 cells; remark: listed apart in the source
Protocol: as §1, §2

[11] = molecular target: T3, recombinant human IL4Rα-his; experiment: dual-binding ELISA: coated human IL4Rα-his, antibody titrated, detection with biotin human TSLP-his and SA-HRP; signal needs both antigens bound
Protocol: For the dual-binding ELISA, 96-well ELISA plates were firstly coated with 100 μL 1 μg/mL human IL4Rα-his protein (IL4Rα of SEQ ID NO: 33 with His tag at C terminus, prepared in-house) in PBS overnight at 4° C. ELISA plates were washed 4 times with wash buffer (PBS+0.05% Tween-20, PBST) and then blocked with 200 μL/well blocking buffer (5% w/v non-fatty milk in PBST) for 2 hours at 37° C. […] ELISA plates were washed again and incubated with SA-HRP (100 μl/well) for 40 minutes at 37° C. After the final wash, 100 μL/well TMB (Innoreagents) was added. The reaction was stopped 15 minutes later at room temperature with 50 μL/well 1M H₂SO₄, and the absorbance was read on a microplate reader using dual wavelength mode with 450 nm for TMB and 630 nm as the reference wavelength. The OD (450-630) values were plotted against antibody concentration. Data was analyzed using Graphpad Prism and EC₅₀ values were reported.

[12] = molecular target: T3, recombinant human IL4Rα-his; experiment: competitive ELISA: coated human IL4Rα-his, antibody titrated; blocked ligand biotin human IL4
Protocol: Briefly, 100 μL human IL4Rα-his proteins (prepared in-house, IL4Rα of SEQ ID NO: 33 with C-terminal His tag) were coated on 96-well micro plates at 2 μg/mL in PBS overnight at 4° C. The next day, plates were washed with wash buffer (PBS+0.05% w/v Tween-20, PBST), and blocked with 5% w/v non-fatty milk in PBST for 2 hours at 37° C. Plates were then washed again using wash buffer. Serially diluted bispecific antibodies or the controls (starting at 100 nM with a 5-fold serial dilution) in 2.5% w/v non-fatty milk in PBST, 100 μL per well, were added to the IL4Rα bound plates, and incubated at 37° C. for 40 minutes. […] Plates were washed again using wash buffer. Thereafter, the plates were added with 100 μL/well of streptavidin conjugated HRP (1:10000 dilution in PBST buffer, Jackson Immunoresearch, Cat #016-030-084) and incubated for 40 minutes at 37° C. Plates were washed again using wash buffer. Finally, TMB was added and the reaction was stopped using 1M H₂SO₄, and the absorbance was read at 450 nm. Data was analyzed using Graphpad Prism and IC₅₀ values were reported.

Row | IC50 [1] [nM] | IC50 [2] [nM] | EC50 [3] [nM] | EC50 [4] [nM] | Kd [5] [nM] | koff [5] [s⁻¹] | kon [5] [M⁻¹ s⁻¹] | EC50 [6] [nM] | IC50 [7] [nM] | EC50 [8] [nM] | Kd [9] [nM] | koff [9] [s⁻¹] | kon [9] [M⁻¹ s⁻¹] | IC50 [10] [nM] | EC50 [11] [nM] | IC50 [12] [nM] | Binder
1 | 1.23 |  |  |  |  |  |  |  |  |  |  |  |  |  |  |  | Tezepelumab (antibody, human IgG2, lambda, V domains shown, Positive control, prepared in-house; also called an anti-TSLP antibody) VH: QMQLVESGGGVVQPGRSLRLSCAASGFTFRTYGMHWVRQAPGKGLEWVAVIWYDGSNKHYADSVKGRFTITRDNSKNTLNLQMNSLRAEDTAVYYCARAPQWELVHEAFDIWGQGTMVTVSS VL: SYVLTQPPSVSVAPGQTARITCGGNNLGSKSVHWYQQKPGQAPVLVVYDDSDRPSWIPERFSGSNSGNTATLTISRGEAGDEADYYCQVWDSSSDHVVFGGGTKLTVLG
2 |  | 0.172 | ~0.165 | 0.0201 | 2.07 | 0.000348 | 168000 | 0.0294 | 0.159 | ~0.162 |  |  |  |  |  |  | huC2C1A1A1-V15(IgG1) (antibody, Monospecific control, full-length IgG1; also called huC2C1A1A-V15(IgG1); anti-IL4R huC2C1A1A1-V15) heavy: EVQLVESGGGLVQPGGSLRLSCAASGFTFSTYGMSWVRQAPGKGLVWVATINSNGGSTSYPDSVKGRFTISRDNAKNTLYLQMNSLRAEDTAVYYCARFFRFRNAMDYWGQGTLVTVSSASTKGPSVFPLAPSSKSTSGGTAALGCLVKDYFPEPVTVSWNSGALTSGVHTFPAVLQSSGLYSLSSVVTVPSSSLGTQTYICNVNHKPSNTKVDKKVEPKSCDKTHTCPPCPAPEAQGGPSVFLFPPKPKDTLYITREPEVTCVVVDVSHEDPEVKFNWYVDGVEVHNAKTKPREEQYNSTYRVVSVLTVLHQDWLNGKEYKCQVSNKALPAPIEKTISKAKGQPREPQVYTLPPSRDELTKNQVSLTCLVKGFYPSDIAVEWESNGQPENNYKTTPPVLDSDGSFFLYSKLTVDKSRWQQGNVFSCSVMHEALHNHYTQKSLSLSPG light: DIQMTQSPSSLSASVGDRVTITCRTSENIYSYLAWYQQKPGKAPKFLVYNAKTLAEGVPSRFSGSGSGTDFTLTISSLQPEDFATYYCQHYYGPPTWTFGQGTKVEIKRTVAAPSVFIFPPSDEQLKSGTASVVCLLNNFYPREAKVQWKVDNALQSGNSQESVTEQDSKDSTYSLSSTLTLSKADYEKHKVYACEVTHQGLSSPVTKSFNRGEC
3 |  |  |  |  | 4.88 | 0.000244 | 50000 | 0.182 | 0.326 | 0.458 | < 0.0141 | < 1e-05 | 710000 | 1.13 | 0.104 | 0.38 | BSI-502-006 (bispecific antibody, human IgG1, kappa, hu1C5F12E9-V8 IgG with an anti-IL4R scFv (VL-VH) at the C-terminus of the heavy chain; AQQ and YTE already stand in the entry) heavy: QVQLVQSGAEVKKPGASVKVSCKASGYTFTTYWMHWVRQAPGQGLEWMGVIDPSDSDTTYNQKFKGRVTMTRDTSTSTVYMELSSLRSEDTAVYYCTRSLDGYYDYWGQGTLVTVSSASTKGPSVFPLAPSSKSTSGGTAALGCLVKDYFPEPVTVSWNSGALTSGVHTFPAVLQSSGLYSLSSVVTVPSSSLGTQTYICNVNHKPSNTKVDKKVEPKSCDKTHTCPPCPAPEAQGGPSVFLFPPKPKDTLYITREPEVTCVVVDVSHEDPEVKFNWYVDGVEVHNAKTKPREEQYNSTYRVVSVLTVLHQDWLNGKEYKCQVSNKALPAPIEKTISKAKGQPREPQVYTLPPSRDELTKNQVSLTCLVKGFYPSDIAVEWESNGQPENNYKTTPPVLDSDGSFFLYSKLTVDKSRWQQGNVFSCSVMHEALHNHYTQKSLSLSPGKGGGGSGGGGSDIQMTQSPSSLSASVGDRVTITCRTSENIYSYLAWYQQKPGKAPKFLVYNAKTLAEGVPSRFSGSGSGTDFTLTISSLQPEDFATYYCQHYYGPPTWTFGQGTKVEIKGGGGSGGGGSGGGGSGGGGSEVQLVESGGGLVQPGGSLRLSCAASGFTFSTYGMSWVRQAPGKGLVWVATINSNGGSTSYPDSVKGRFTISRDNAKNTLYLQMNSLRAEDTAVYYCARFFRFRNAMDYWGQGTLVTVSS light: DIQMTQSPSSLSASVGDRVTITCRPTENIYSYLAWYQQKPGKAPKLLIYFARTLAEGVPSRFSGSGSGTDFTLTISSLQPEDFATYYCQHHYGTPWTFGGGTKVEIKRTVAAPSVFIFPPSDEQLKSGTASVVCLLNNFYPREAKVQWKVDNALQSGNSQESVTEQDSKDSTYSLSSTLTLSKADYEKHKVYACEVTHQGLSSPVTKSFNRGEC
